Reference: publication PMC10364585

Target: recombinant spider silk protein eADF4(C16)
Test: seeded turbidity kinetics at 340 nm; monomeric eADF4(C16) 10-40 uM with 0.5% or 30% (w/w) preformed seeds (sonicated mature fibrils of the same protein), 150 mM KPi pH 8.0, quiescent, 20-40 C; global fit with AmyloFit (secondary nucleation model)

rate constant for primary nucleation kn: 1e-09 M⁻¹ s⁻¹
Substance: recombinant spider silk protein eADF4(C16)
